In publication PMC3867001 one finds Kd and dH data, which are given here for two substances.

The test has as its target HIV-1 M group N-terminal capsid domain (HIV-1 M group) (UniProt P12493). As to the kind of experiment: ITC. On the technique in general: ITC needs no label: the signal is the heat of the interaction.

“Cyclophilin A (unacetylated, recombinant) (from UniProt P62937 1-165) (enzyme)” showed an equilibrium dissociation constant (Kd) of 7.5 µM and a dH of -7.4 kcal/mol.

As to “Lys125-acetylated Cyclophilin A (recombinant) (from UniProt P62937 1-165) (enzyme)”, the Kd was 6.1 µM and the dH is -4.6 kcal/mol.

Usually Kd stands for the constant that tells how readily two partners part at equilibrium. Low values mean higher affinity, high ones lower affinity.
